Biological target: SARS-nCoV-2 Spike RBD (Raybiotech, catalog no. 230-30162), recombinant wildtype (SARS-CoV-2, UniProt P0DTC2 319-541)

B1: IgG 106/107 (antibody, V domains shown)
VH: EVQLVESGGGLVQPGGSLRLSCVASGITVSANYMSWVRQAPGKGLEWVSVIYSGGSTFYADSVKGRFTISRDNSKNTLYLQMNNLRADDTAVYSCARDFRGATAFDIWGQGTMVTVSS
VL: QSALTQPASVSGSPGQSITISCTATSSDVDDYNYVSWYQQHPGKAPKLLIYDVNNRPSGVSNRFSGSKSGNTASLTISGLQAEDEADYYCSSYTSSSTGVFGSGTKVTVLG
Binder B1 has an IC50 of less than 0.5 nM.
